Assay results as given in US20210047431A1 (DIACCURATE, published 2021).
Numbering of substitutions follows the chain as printed.

B1: #22C6 (antibody, IgG2a, V domains shown)
VH: EVQLQESGPGLVKPSQTVSLNCTVTGHSITDDNYYWSWIRLVSGSKLEWIGYITSAGNTDNNPSLKSRISITRDISKNQFFLHLSSVTAEDTATYYCARDSTDGDFYFEKWGQGTTLTVSS
VL: EIVLTQSPTTMAASPGEKITITCSVSSSISPNFLHWYQQKPGFSPKLLIFRTSNLASGVPTRFSGSGSGTSYSLTIGTMEAEDVATYYCHQGNSLPLTFGAGTKLELKR
B2: #24B2 (antibody, IgG2a, V domains shown)
VH: B1 VH with E1D, L4V, A56S, N58S, N61I, S85N
VL: DIVLTQSPASLAVSLGQRATISCRASESVDNYGISFMHWYQQKPGQPPKLLIYRASNLESGIPARFSGSGSRTDFTLTINPVETDDVATYYCQQSSRDLFTFGGGTKLEIKR
B3: #14G9 (antibody, IgG1, V domains shown)
VH: QVQLQQPGAELVKPGASVKLSCKASGYTFTNYWIHWVKRRPGQGLEWIGNIDPSDTRTHYNQKFKDKATLAVDKSSSTAYMQLSSLTSEDSAVFYCARQTLYYEALDYWGQGTTLTVSS
VL: DIVMTQSHKLMSTSVGDRVSITCKASQDVSTAVAWYQEKPGQSPKLLIYWASTRHTGVPNRFTGSRSGTDYTLTISSVQAEDLALYYCQQDYSTPPTFGAGTKLELKR
notes: also called monoclonal antibody 14G9; #14G9 mAb
B4: #7A10 (antibody, IgG1, V domains shown)
VH: QVQLKESGPGLVAPSQSLSITCTVSGFSLTSYGVSWVRQPPGKGLEWLGVIWGDGSTNYHSALISRLSISKDNSKSQVFLKLNSLQTDDTATYYCAKEGGLRRGVYFDYWGQGTTLTVSS
VL: DIQMNQSPSSLSASLGDTITITCRASQGISIWLDWYQQKPGNIPKLLIYKASNLHTGVPPRFSGSGSGTDFTLTISSLQPEDIATYYCLQSQSYPLTFGAGTKLELKR
notes: also called monoclonal antibody 7A10; #7A10 mAb
B5: #1C11 (antibody, IgG1, V domains shown)
VH: EVKLQESGPELVKPGASVKISCKVSGYAFSSFWMNWVKQRPGKGLEWIGRIYPGDGDINYNGKFKGKATLTADKSSSTAYMQLSSLTSEDSAVYFCVRGWAWFPYWGQGTLVTVSA
VL: EIVLTQSPAITSASLGQRVTISCSATSSVSYVHWYQQKSGTSPKPWIYEISRLASGVPARFSGSGSGTSYSLTISTMEAEDAAIYYCQSWNFPLLSFGAGTKLELKR
notes: also called monoclonal antibody 1C11; #1C11 mAb

Assays:
[1] = target: T1, recombinant human pro-sPLA2-GIB (pro form of group IB pancreatic phospholipase A2) (human, UniProt P04054 16-148); assay: competition ELISA on coated pro-sPLA2-IB; competitor biotinylated 1C11
T1 construct: also called pro-sPLA2-IB; proPLA2-GIB
Procedure: (§1) Epitope mapping of the #14G9, #1C11, #8G11 and #7A10 mAbs was evaluated by competition ELISA. Biotinylated mAbs #14G9, #1C11, #8G11 or #7A10 were added to sPLA2-GIB or pro-sPLA2-GIB coated plates in the presence of an excess of un-biotinylated mAb. Bound mAbs were then detected with Streptavidin-HRP conjugate. Results were expressed as percentage of signal, after subtraction of the autologous competition, with 0% representing maximum competition and 100% no competition (Table 4).

[2] = target: T1, recombinant human pro-sPLA2-GIB (pro …); assay: competition ELISA on coated pro-sPLA2-IB; competitor biotinylated 8G11
Procedure: as §1

[3] = target: T1, recombinant human pro-sPLA2-GIB (pro …); assay: competition ELISA on coated pro-sPLA2-IB; competitor biotinylated 7A10
Procedure: as §1

[4] = target: T2, recombinant human sPLA2-GIB (mature secreted form of group IB pancreatic phospholipase A2) (human, UniProt P04054 23-148); assay: competition ELISA on coated sPLA2-IB; competitor biotinylated 1C11
T2 construct: Genbank NP_000919 printed for human PLA2-GIB; also called sPLA2-IB; mature sPLA2-GIB
Procedure: as §1

[5] = target: T2, recombinant human sPLA2-GIB (mature …); assay: competition ELISA on coated sPLA2-IB; competitor biotinylated 14G9
Procedure: as §1

[6] = target: T2, recombinant human sPLA2-GIB (mature …); assay: competition ELISA on coated sPLA2-IB; competitor biotinylated 7A10
Procedure: as §1

[7] = target: T2, recombinant human sPLA2-GIB (mature …); assay: cell-based or functional assay
[8] = target: T2, recombinant human sPLA2-GIB (mature …); assay: indirect ELISA, coated antigen
Procedure: (§2) Microplate wells were typically coated with 100 ng of recombinant human sPLA2-GIB or pro-sPLA2-GIB in PBS pH 7.5, overnight at 4° C. Sample wells were washed three times with PBS containing 0.05% Tween 20. After final washing, sample wells were treated with blocking solution containing 1% bovine serum albumin (BSA) in PBS buffer for 60 min at room temperature. Following washing with PBS containing 0.05% Tween 20, increasing amounts (10 ng/mL up to 3 μg/mL) of mAb directed against human pro-sPLA2-GIB or sPLA2-GIB were added to antigen-coated wells. and incubated for 120 min at room temperature. Following washing with PBS containing 0.05% Tween 20, the binding of mAb was detected with an HRP-conjugated goat anti-mouse IgG or IgA polyclonal antibody reagent and developed using colorimetric substrate. The dependency of the signals on the […] was analyzed with a 4-parameter fit analysis using Prism™ software (Graph Pad) and reported as EC50.

[9] = target: T1, recombinant human pro-sPLA2-GIB (pro …); assay: indirect ELISA, coated antigen
Procedure: as §2

[10] = target: T1, recombinant human pro-sPLA2-GIB (pro …); assay: indirect ELISA, coated antigen; indirect ELISA, pro-sPLA2-IB coated on the plate
Procedure: as §2

[11] = target: T2, recombinant human sPLA2-GIB (mature …); assay: SPR (BIAcore 2000), mAb captured on anti-mouse IgG, antigen in solution
Procedure: (§3) The affinity constant (KD) of the pro-sPLA2-GIB and sPLA2-GIB binding to the selected antibodies described above were determined by surface kinetics on a real-time biosensor surface plasmon resonance assay (BIAcore™). More specifically, the affinity of the antibodies for human pro-sPLA2-GIB and sPLA2-GIB was measured using a BIAcore® 2000. The antibody was captured on an anti-mouse IgG surface and exposed to various concentrations of recombinant pro-sPLA2-GIB and sPLA2-GIB protein. Kinetic analysis using BlAevaluation™ software was performed to obtain the association and dissociation rate constants.
as §3, with “constants (Table 3).” for “constants.”

[12] = target: T2, recombinant human sPLA2-GIB (mature …); assay: competitive ELISA: mAb premixed with serial dilutions of soluble antigen, free mAb read on antigen-coated plate
Procedure: (§4) Binding affinities of the antibodies to pro-sPLA2-GIB and sPLA2-GIB were measured by plate-based competition immunoassay. For the competition ELISA, briefly, constant amounts of antibody at different levels were premixed with serial dilutions of antigen protein, human sPLA2-GIB or pro-sPLA2-GIB, ranging from 0 to 10 μg/ml, and incubated for two hours at room temperature to reach pseudo-binding equilibrium between the antibody and antigen. These solutions were then transferred to 96-well sPLA2-GIB or pro-sPLA2-GIB pre-coated plates to allow the free-antibody in the mixtures to bind to plate-coated sPLA2-GIB or pro-sPLA2-GIB. The plates were typically coated with 30 to 100 ng of human sPLA2-GIB or pro-sPLA2-GIB protein in PBS solution overnight at 4° C. followed by BSA nonspecific blocking. After washing off excess antibody in solution, plate-bound antibodies were detected with an HRP-conjugated goat anti-mouse IgG or IgA polyclonal antibody reagent and developed using colorimetric substrate. The dependency of the signals on the concentrations of antigen in solution was analyzed with a 4-parameter fit analysis using Prism™ software (Graph Pad) and reported as IC50.
(§5) The respective binding affinities of the antibodies to human pro-sPLA2-GIB and human sPLA2-GIB were measured by plate-based competition immunoassay. Briefly, constant amounts of antibody at different levels were premixed with serial dilutions of antigen proteins to reach pseudo-binding equilibrium between the antibody and antigen. These solutions were then transferred to antigen pre-coated plates to allow the free-antibody in the mixtures to bind to plate-coated sPLA2-GIB or pro-sPLA2-GIB. Plate-bound antibodies were detected with an HRP-conjugated polyclonal antibody. Data were fitted with a 4PL logistic non-linear regression model and the relative IC50 values were estimated from the model (Table 2).

[13] = target: T1, recombinant human pro-sPLA2-GIB (pro …); assay: SPR (BIAcore 2000), mAb captured on anti-mouse IgG, antigen in solution; SPR, mAb captured, pro-sPLA2-GIB in solution
Procedure: as §3
as §3, with “constants (Table 3).” for “constants.”

[14] = target: T1, recombinant human pro-sPLA2-GIB (pro …); assay: competitive ELISA: mAb premixed with serial dilutions of soluble antigen, free mAb read on antigen-coated plate; competitive ELISA, soluble pro-sPLA2-IB
Procedure: as §4, with “The plates were typically coated with 30 to 100 ng of human sPLA2-GIB or pro-sPLA2-GIB protein in PBS solution overnight at 4° C. followed by BSA nonspecific blocking.” left out
The respective binding affinities of the antibodies to human pro-sPLA2-GIB and human sPLA2-GIB were measured by plate-based competition immunoassay. […] Plate-bound antibodies were detected with an HRP-conjugated polyclonal antibody. […]

[15] = target: T2, recombinant human sPLA2-GIB (mature …); assay: cell-based or functional assay; remark: listed apart in the source
[16] = target: T1, recombinant human pro-sPLA2-GIB (pro …); assay: SPR (BIAcore 2000), mAb captured on anti-mouse IgG, antigen in solution
Procedure: as §3
as §3, with “constants (Table 3).” for “constants.”

[17] = target: T1, recombinant human pro-sPLA2-GIB (pro …); assay: competitive ELISA: mAb premixed with serial dilutions of soluble antigen, free mAb read on antigen-coated plate
Procedure: as §4, §5

T1 sequence (P04054 16-148): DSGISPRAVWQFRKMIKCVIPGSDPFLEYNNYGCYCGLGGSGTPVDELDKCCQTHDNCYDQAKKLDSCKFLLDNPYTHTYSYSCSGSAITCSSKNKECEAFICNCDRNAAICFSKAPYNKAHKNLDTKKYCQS
T2 sequence (P04054 23-148): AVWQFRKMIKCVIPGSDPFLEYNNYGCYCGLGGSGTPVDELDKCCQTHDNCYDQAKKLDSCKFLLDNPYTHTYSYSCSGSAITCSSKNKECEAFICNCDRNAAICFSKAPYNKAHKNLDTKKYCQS

Binder	percentage of signal [1] [%]	percentage of signal [2] [%]	percentage of signal [3] [%]	percentage of signal [4] [%]	percentage of signal [5] [%]	percentage of signal [6] [%]	Enzymatic Activity Inhibition (% of Control) [7] [%]	EC50 [8] [nM]	EC50 [9] [nM]	Kd [11] [nM]	koff [11] [s⁻¹]	kon [11] [M⁻¹ s⁻¹]	t1/2 [11] [min]	IC50 [12] [nM]	Kd [16] [nM]	koff [16] [s⁻¹]	kon [16] [M⁻¹ s⁻¹]	t1/2 [16] [min]	IC50 [17] [nM]	also measured
B1	18	39	141	56	2	53	3	22	117											
B2	23	64	135	61	17	65	5	15	81											
B3	69	73	141	64		12	5	6		0.338	0.000549	1.63e+06	30.4	1						EC50 [10]: 158 nM; Kd [13]: 174 nM; koff [13]: 0.0506 s⁻¹; kon [13]: 301000 M⁻¹ s⁻¹; t1/2 [13]: 0.3 min; IC50 [14]: 109 nM; IC50 of inhibition of sPLA2-GIB enzymatic activity (sPLA2 Activity in U/mL against #14G9 mAb in Log M, 4PL fit) [15]: 2.3 nM
B4	18	93		19	58		51	77	13	3.83	0.000444	118000	37.5	5.3	3.79	0.000407	110000	41	4.3	
B5		496	314		1440	1150	110	3	4	0.0644	0.000309	4.79e+06	53.9	3.8	0.151	0.000405	2.7e+06	41.2	2.4	
